Results taken from patent publication US20130287781A1 (GlaxoSmithKline, published 2013).
Like-named read-outs stand apart in the source and are kept apart here.

Columns and labels:
[1] = biological target: T1, Cynomolgus monkey NOGO (A56) plus GST tag (cynomolgus monkey); test: SPR (Biacore), both formats
T1 construct: also called cynomolgus Nogo-A; GST-NOGO-A56 from cynomolgus
Text: (§1) Approximately 140-180RUs of the various Nogo-A orthologues were captured to the CM5 chip by primary amine coupling. […] The values show the mean and standard deviation (in brackets) of 1-2 independent runs carried out in duplicate with each data set independently analysed prior to calculation of the mean and standard deviation.
(§2) Protein A was immobilised on the surface at about 4000RUs and anti-Nogo-A antibodies were captured at approximately 300-400RUs. […] All the runs were done in duplicates.

[2] = biological target: T2, Rat NOGO (A56) plus GST tag (rat); test: SPR (Biacore), both formats
T2 construct: also called GST-NOGO-A56 from rat
Text: as §1, §2

[3] = biological target: T3, Marmoset NOGO (A56) plus GST tag (marmoset); test: direct ELISA on GST-NOGO-A56 from marmoset, Abs490
T3 construct: also called GST-NOGO-A56 from marmoset

[4] = biological target: T1, Cynomolgus monkey NOGO (A56) plus GST …; test: direct ELISA on GST-NOGO-A56 from cynomolgus, Abs490
GST-human NOGO-A56 [5] = biological target: T4, GST-human NOGO-A56 (human); test: SPR (Biacore) off-rate ranking on GST-human NOGO-A56 chip, one experiment
T4 construct: Expressed in E. coli BL21 from pGEX-6P1 and purified on glutathione-sepharose; the GST tag is part of the protein in the assays; also called GST-Nogo-A 5+6; GST Nogo-A 5 + 6
Experimental: (§3) GST-human NOGO-A56 was immobilised to a CM5 chip by primary amine coupling using the Biacore Wizard program designed for targeted immobilisation levels. The CM5 sensor surface was activated by passing a solution of 50 mM N-hydroxy-succinimide (NHS) and 200 mM N-ethyl-N′-dimethylaminopropyl carbonide (EDC). Then GST-human NOGO-A56 in sodium acetate buffer, pH5.0 or pH 4.5, was passed over the chip and immobilised. After immobilisation was complete any still activated esters were blocked by an injection of 1M ethanolamine hydrochloride, pH8.5.
The GST-human NOGO-A56 chip was prepared as for kinetic analysis. Cell supernatants where taken directly from transient transfections of CHO-K1 cells. These were passed directly over the sensor surface and the interaction measured. A mock transfected cell supernatant was used for double referencing to remove any artefacts due to the tissue culture media. All runs were referenced against a blanked sensor surface (one that had been activated and blocked as described earlier but had no addition of ligand). Analysis of binding was carried out using the BIAevaluation kinetic analysis software version 4.1.

GST-human NOGO-A56 [6] = biological target: T4, GST-human NOGO-A56; test: SPR (Biacore) off-rate on NOGO chip, panel of H6FL CDR H3 variants with L13FL
GST-human NOGO-A56 [7] = biological target: T4, GST-human NOGO-A56; test: direct ELISA, human NOGO-A (GST-human NOGO-A56) coated at 1 ug/ml, Abs490
GST-human NOGO-A56 [8] = biological target: T4, GST-human NOGO-A56; test: SPR (Biacore), GST-human NOGO-A56 amine-coupled to CM5, antibody flowed over, 25 C
Experimental: as §3
(§4) The anti-NOGO mAbs were diluted down in HBS-EP (10 mM HEPES, pH 7.4, 150 mM NaCl, 3 mM EDTA, and 0.005% P-20 surfactant) for the BIAcore 3000 or HBS-EP+ (10 mM HEPES, pH 7.4, 150 mM NaCl, 3 mM EDTA, and 0.05% P-20 surfactant) in the case of the T100 and binding studies were carried out at range of defined antibody concentrations. All runs were referenced against a blanked sensor surface (one that had been activated and blocked as described earlier but had no addition of ligand). Analysis of binding was carried out using the BIAevaluation kinetic analysis software version 4.1 for the BIAcore 3000 and T100 kinetic analysis software version 1.0. […] Unless otherwise stated, the BIAcore experiments were performed at 25° C.

GST-human NOGO-A56 [9] = biological target: T4, GST-human NOGO-A56; test: SPR (Biacore), GST-human NOGO-A56 amine-coupled to CM5, antibody flowed over, 37 C
Experimental: as §3, §4

GST-human NOGO-A56 [10] = biological target: T4, GST-human NOGO-A56; test: SPR (Biacore), GST-human NOGO-A56 amine-coupled to CM5, antibody flowed over, 25 C; remark: listed apart in the source
Experimental: as §3, §4

GST-human NOGO-A56 [11] = biological target: T4, GST-human NOGO-A56; test: SPR (Biacore T100), reverse format: antibody captured by Protein A, GST-NOGO-A56 flowed over; mean
Text: (§5) Protein A was immobilised on the surface at about 4000RUs and anti-Nogo-A antibodies were captured at approximately 300-400RUs. […] All the runs were done in duplicates. The values show the mean and standard deviation (in brackets) of 1-3 independent runs with each run done in duplicate and each data set analysed independently prior to calculation of the mean and standard deviation.

[12] = biological target: T1, Cynomolgus monkey NOGO (A56) plus GST …; test: as above
Text: as §5

[13] = biological target: T2, Rat NOGO (A56) plus GST tag; test: as above
Text: as §5

[14] = biological target: T3, Marmoset NOGO (A56) plus GST tag; test: as above
Text: as §5

[15] = biological target: T5, Squirrel monkey NOGO (A56) plus GST tag (squirrel monkey); test: as above
T5 construct: also called GST-NOGO-A56 from squirrel monkey
Text: as §5

[16] = biological target: T1, Cynomolgus monkey NOGO (A56) plus GST …; test: SPR (Biacore), reverse format: antibody captured by Protein A
Text: as §5

[17] = biological target: T2, Rat NOGO (A56) plus GST tag; test: as above
Text: as §5

Human C1q (Sigma, C0660) = biological target: T6, Human C1q (Sigma, C0660) (human, UniProt P02745 23-245; P02746 28-253; P02747 29-245); test: C1q ELISA: antibody coated at 1 mcg/ml, human C1q added, anti-human C1q-HRP, Abs490
T6 construct: Bought protein
Text: ELISA plates were coated with a fixed concentration of the purified humanised and control antibodies (1 mcg/ml).

[18] = biological target: T3, Marmoset NOGO (A56) plus GST tag; test: SPR (Biacore), reverse format: antibody captured by Protein A; end of the range tied to marmoset by Table 19
Text: as §5

[19] = biological target: T5, Squirrel monkey NOGO (A56) plus GST tag; test: SPR (Biacore), reverse format: antibody captured by Protein A; end of the range tied to squirrel monkey by Table 19
Text: as §5

GST-human NOGO-A56 [20] = biological target: T4, GST-human NOGO-A56; test: competition ELISA on coated GST-Nogo-A 5+6; competitor 2A10 pre-mixed, bound 2A10 detected with anti-mouse IgG-HRP
GST-human NOGO-A56 [21] = biological target: T4, GST-human NOGO-A56; test: as above; remark: listed apart in the source
Text: Recombinant human Nogo-A (GST-Nogo-A 5+6) was coated to the plates. […] IC50 values were derived using Robosage.

[22] = biological target: T7, peptide 6 (biotin-SGSG-TPSPVLPDIVMEAPLN) (human, N-terminal biotin); test: peptide ELISA: biotinylated 16-mer peptide on streptavidin, antibody at 5 ug/ml, kappa-chain peroxidase conjugate, Abs490
T7 peptide: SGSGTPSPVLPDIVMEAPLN
Experimental: (§6) Streptavidin at 5 μg/ml in sterile water was coated onto Nunc immunosorp plates (100 μl per well) at 37° C. overnight. The plates were rinsed 3 times with PBS containing 0.05% Tween (PBST) then blocked with 3% BSA in PBST at 4° C. overnight. The plates were washed 3 times with PBST. Peptides were then added to the wells at a concentration of approximately 10 μg/ml (diluted in 3% BSA in PBST) and incubated at room temperature for 1 hour. The plates were washed 3 times with PBST then incubated for 1 hour with anti-NOGO antibodies diluted to 5 μg/ml in 3% BSA in PBST. […] The plates were washed 3 times with PBST and then incubated with 100 μl OPD peroxidase substrate (Sigma) per well for 10 minutes. The colour reaction was stopped by the addition of 50 μl 3 molar H₂SO₄. Absorbance at 490 nm was measured using a plate reader.

[23] = biological target: T8, peptide 7 (biotin-SGSG-VLPDIVMEAPLNSAVP) (human, N-terminal biotin); test: as above
T8 peptide: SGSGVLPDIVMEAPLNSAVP
Experimental: as §6

T2 sequence (chain, as listed by the source limits assumed): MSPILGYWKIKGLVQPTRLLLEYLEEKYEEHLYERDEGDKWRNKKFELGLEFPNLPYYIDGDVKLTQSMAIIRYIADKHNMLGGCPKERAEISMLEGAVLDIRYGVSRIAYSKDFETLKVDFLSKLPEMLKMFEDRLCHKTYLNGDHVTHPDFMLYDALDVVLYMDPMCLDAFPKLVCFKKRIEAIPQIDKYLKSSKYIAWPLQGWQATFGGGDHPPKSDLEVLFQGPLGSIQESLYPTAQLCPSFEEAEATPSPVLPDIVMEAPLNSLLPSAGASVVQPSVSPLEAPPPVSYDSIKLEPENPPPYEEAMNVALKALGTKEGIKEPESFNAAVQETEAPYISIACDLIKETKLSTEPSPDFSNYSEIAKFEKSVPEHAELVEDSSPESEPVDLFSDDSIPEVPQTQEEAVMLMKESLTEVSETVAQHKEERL
T4 sequence (chain, as listed by the source limits assumed): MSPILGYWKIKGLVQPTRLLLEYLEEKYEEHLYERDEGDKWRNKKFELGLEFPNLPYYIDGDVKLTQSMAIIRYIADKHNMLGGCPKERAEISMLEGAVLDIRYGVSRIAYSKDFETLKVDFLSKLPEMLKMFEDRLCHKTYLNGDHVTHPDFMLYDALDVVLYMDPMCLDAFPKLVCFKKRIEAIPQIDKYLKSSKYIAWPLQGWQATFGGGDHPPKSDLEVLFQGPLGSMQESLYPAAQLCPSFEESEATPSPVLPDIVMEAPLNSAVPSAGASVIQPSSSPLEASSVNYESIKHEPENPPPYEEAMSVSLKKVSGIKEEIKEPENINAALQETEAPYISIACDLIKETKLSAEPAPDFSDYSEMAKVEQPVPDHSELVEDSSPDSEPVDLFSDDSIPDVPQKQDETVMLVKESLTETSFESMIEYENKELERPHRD
T5 sequence (chain, as listed by the source limits assumed): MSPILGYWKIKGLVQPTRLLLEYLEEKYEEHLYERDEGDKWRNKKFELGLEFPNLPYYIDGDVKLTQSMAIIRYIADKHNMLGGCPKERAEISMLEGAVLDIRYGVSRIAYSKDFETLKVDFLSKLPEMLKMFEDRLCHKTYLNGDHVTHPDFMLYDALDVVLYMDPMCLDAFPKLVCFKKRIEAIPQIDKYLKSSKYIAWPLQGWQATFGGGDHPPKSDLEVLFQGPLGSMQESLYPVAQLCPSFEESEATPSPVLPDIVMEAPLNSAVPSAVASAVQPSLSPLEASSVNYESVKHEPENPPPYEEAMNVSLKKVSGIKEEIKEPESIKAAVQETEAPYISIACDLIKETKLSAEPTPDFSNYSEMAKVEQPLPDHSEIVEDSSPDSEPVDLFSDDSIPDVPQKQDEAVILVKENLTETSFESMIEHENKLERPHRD
T3 sequence (chain, as listed by the source limits assumed): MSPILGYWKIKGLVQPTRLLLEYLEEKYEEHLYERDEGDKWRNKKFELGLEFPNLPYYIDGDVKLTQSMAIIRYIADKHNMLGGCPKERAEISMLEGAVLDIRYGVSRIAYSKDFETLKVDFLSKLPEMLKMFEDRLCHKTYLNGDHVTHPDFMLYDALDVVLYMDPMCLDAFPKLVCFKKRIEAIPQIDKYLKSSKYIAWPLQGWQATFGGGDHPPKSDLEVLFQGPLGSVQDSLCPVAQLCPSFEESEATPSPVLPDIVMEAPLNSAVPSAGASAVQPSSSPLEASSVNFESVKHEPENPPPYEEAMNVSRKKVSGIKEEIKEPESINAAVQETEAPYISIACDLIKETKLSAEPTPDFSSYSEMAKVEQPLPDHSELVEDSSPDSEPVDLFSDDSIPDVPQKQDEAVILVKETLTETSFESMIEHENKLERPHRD
T1 sequence (chain, as listed by the source limits assumed): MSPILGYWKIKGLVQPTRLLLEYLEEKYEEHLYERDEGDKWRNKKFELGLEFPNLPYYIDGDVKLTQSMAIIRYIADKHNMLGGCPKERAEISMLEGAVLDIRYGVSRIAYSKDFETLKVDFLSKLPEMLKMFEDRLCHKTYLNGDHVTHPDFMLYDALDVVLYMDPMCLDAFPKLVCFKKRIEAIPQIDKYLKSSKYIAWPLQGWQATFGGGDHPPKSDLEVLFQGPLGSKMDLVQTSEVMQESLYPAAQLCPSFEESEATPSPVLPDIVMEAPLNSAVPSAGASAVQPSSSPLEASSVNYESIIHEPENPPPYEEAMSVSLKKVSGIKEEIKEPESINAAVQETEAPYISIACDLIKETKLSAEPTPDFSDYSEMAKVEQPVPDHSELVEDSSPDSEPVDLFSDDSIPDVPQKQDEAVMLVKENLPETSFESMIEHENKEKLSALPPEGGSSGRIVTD
T6 sequence (P02745 23-245 limits assumed, chain 1 of 3): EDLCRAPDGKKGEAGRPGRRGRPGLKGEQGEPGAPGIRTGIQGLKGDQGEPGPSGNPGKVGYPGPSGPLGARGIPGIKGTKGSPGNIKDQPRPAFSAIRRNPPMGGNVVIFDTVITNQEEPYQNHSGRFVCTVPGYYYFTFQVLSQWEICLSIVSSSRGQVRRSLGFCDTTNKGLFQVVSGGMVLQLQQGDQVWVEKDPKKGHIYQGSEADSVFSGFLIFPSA
T6 sequence (P02746 28-253 limits assumed, chain 2 of 3): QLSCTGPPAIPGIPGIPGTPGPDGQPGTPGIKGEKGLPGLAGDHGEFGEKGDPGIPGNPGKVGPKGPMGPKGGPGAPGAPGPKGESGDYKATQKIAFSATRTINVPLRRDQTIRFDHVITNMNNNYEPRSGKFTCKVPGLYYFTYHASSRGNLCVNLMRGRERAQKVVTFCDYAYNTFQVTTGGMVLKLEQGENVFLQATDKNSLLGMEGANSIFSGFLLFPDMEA
T6 sequence (P02747 29-245 limits assumed, chain 3 of 3): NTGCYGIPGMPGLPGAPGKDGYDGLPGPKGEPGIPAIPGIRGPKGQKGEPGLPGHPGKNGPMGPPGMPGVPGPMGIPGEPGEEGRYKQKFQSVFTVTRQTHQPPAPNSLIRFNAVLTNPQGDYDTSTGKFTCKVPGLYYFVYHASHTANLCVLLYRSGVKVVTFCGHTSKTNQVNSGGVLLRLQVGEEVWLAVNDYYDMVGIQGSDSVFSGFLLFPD

B1: HcLc (chimera of 2A10: murine 2A10 VH and VL with human IgG constant regions) (antibody, V domains shown)
VH: QVQLQQPGTELVKPGASVKLSCKASGYTFTSYWMHWVKQRPGQGLEWIGNINPSNGGTNYNEKFKSKATLTVDKSSSTAYMQLSSLTSEDSAVYYCELGQGYWGQGTLVTVSS
VL: DIVITQDELSNPVTSGESVSISCRSSKSLLYKDGKTYLNWFLQRPGQSPQLLIYLMSTRASGVSDRFSGSGSGTDFTLEISRVKAEDVGVYYCQQLVEYPLTFGAGTKLELKR
notes: also called chimeric antibody; chimeric form of the parental antibody
In the case of B1, the “fold of the affinity for human Nogo-A” value [1] is reported as ≤ 8.5 fold, the “fold of the affinity for human Nogo-A” value [2] is reported as ≤ 4 fold and the “EC50 (read off the curve)” value [3] is reported as ~0.09 µg/mL. For the same binder, the “EC50 (read off the curve)” value [4] was ~0.1 µg/mL, the koff (GST-human NOGO-A56 [5]) was 0.00266 s⁻¹ and the koff (GST-human NOGO-A56 [6]) was 0.00558 s⁻¹. For the same binder, the “EC50 (read off the curve)” value (GST-human NOGO-A56 [7]) was ~0.04 µg/mL, the Kd (GST-human NOGO-A56 [8]) was 1.18 nM and the koff (GST-human NOGO-A56 [8]) was 0.00313 s⁻¹. It also gave a kon (GST-human NOGO-A56 [8]) of 2.66e+06 M⁻¹ s⁻¹, a Kd (GST-human NOGO-A56 [9]) of 1.46 nM and a koff (GST-human NOGO-A56 [9]) of 0.00774 s⁻¹. The kon (GST-human NOGO-A56 [9]) was 5.08e+06 M⁻¹ s⁻¹, the Kd (GST-human NOGO-A56 [10]) was 0.74 nM and the koff (GST-human NOGO-A56 [10]) was 0.00233 s⁻¹. For the same binder, the kon (GST-human NOGO-A56 [10]) was 3.17e+06 M⁻¹ s⁻¹, the Kd (GST-human NOGO-A56 [11]) was 0.54 nM and the Kd [12] was 4.66 nM. It also gave a Kd [13] of 2.01 nM, a Kd [14] of 4.51 nM and a Kd [15] of 7.45 nM.

B2: H28L16 (antibody, human IgG1, kappa)
heavy: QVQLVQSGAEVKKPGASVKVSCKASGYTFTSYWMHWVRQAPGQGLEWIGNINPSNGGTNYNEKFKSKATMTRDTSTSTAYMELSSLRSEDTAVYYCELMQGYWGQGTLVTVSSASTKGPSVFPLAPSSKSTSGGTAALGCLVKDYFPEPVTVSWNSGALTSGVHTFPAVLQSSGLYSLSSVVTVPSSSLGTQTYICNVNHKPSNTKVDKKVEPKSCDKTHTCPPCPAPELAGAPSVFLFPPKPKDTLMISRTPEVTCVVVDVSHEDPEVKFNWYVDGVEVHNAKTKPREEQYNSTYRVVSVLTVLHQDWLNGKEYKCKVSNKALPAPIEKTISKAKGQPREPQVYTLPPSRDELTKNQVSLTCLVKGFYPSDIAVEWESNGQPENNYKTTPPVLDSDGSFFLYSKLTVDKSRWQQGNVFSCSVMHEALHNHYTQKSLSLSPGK
light: DIVMTQSPLSNPVTLGQPVSISCRSSKSLLYKDGKTYLNWFLQRPGQSPQLLIYLMSTRASGVPDRFSGGGSGTDFTLKISRVEAEDVGVYYCQQLVEYPLTFGQGTKLEIKRTVAAPSVFIFPPSDEQLKSGTASVVCLLNNFYPREAKVQWKVDNALQSGNSQESVTEQDSKDSTYSLSSTLTLSKADYEKHKVYACEVTHQGLSSPVTKSFNRGEC
notes: IgG1 (L235A, G237A) / kappa; CAMPATH-1H signal (1-19) left out; also called H28FL L16FL; NOGO H28L16
For B2, the “fold lower affinity than for human Nogo-A” value (from here on “fold lower affinity than”) [16] was 8.5 fold, the “fold lower affinity than” value [17] was ~4 fold and the “EC50 (read off the curve)” value [3] was ~0.04 µg/mL. The “EC50 (read off the curve)” value [4] was ~0.05 µg/mL, the Kd (GST-human NOGO-A56 [8]) was 0.61 nM and the koff (GST-human NOGO-A56 [8]) was 0.00264 s⁻¹. It also gave a kon (GST-human NOGO-A56 [8]) of 4.33e+06 M⁻¹ s⁻¹, a Kd (GST-human NOGO-A56 [9]) of 0.678 nM and a koff (GST-human NOGO-A56 [9]) of 0.00524 s⁻¹. For the same binder, the kon (GST-human NOGO-A56 [9]) was 7.73e+06 M⁻¹ s⁻¹, the Kd (GST-human NOGO-A56 [10]) was 0.28 nM and the koff (GST-human NOGO-A56 [10]) was 0.00195 s⁻¹. The kon (GST-human NOGO-A56 [10]) was 6.89e+06 M⁻¹ s⁻¹, the binding result (Human C1q (Sigma, C0660)) was “binds” and the “fold lower affinity than” value [18] was 12 fold. The “fold lower affinity than” value [19] was 17 fold, the Kd (GST-human NOGO-A56 [11]) was 0.4 nM and the Kd [12] was 3.41 nM. The Kd [13] was 1.76 nM, the Kd [14] was 4.89 nM and the Kd [15] was 6.86 nM. The “IC50 (read off the curve)” value (GST-human NOGO-A56 [20]) was ~4 µg/mL, the “IC50 (read off the curve)” value (GST-human NOGO-A56 [21]) was ~4 µg/mL and the binding result [22] was “binds”. B2: binds [23].
